Reference: paper PMC6735679
Read-outs that look alike come from different tables or passages of the source.

Experiments:
CNBP [1] = biological target: T1, CNBP (Homo sapiens, UniProt P62633 1-177); experiment: EMSA
CNBP [2] = biological target: T1, CNBP; experiment: EMSA; remark: listed apart in the source

T1 sequence (P62633 whole entry): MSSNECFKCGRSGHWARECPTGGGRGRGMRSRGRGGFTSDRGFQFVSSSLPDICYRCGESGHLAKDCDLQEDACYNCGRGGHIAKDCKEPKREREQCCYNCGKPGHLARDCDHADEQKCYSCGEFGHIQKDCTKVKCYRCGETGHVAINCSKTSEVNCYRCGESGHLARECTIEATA

Binder | binding result (CNBP [1]) | binding result (CNBP [2])
GAGGGGGAGGGGGG (ssDNA) [C14] | binds | 
TGGGGT (ssDNA) [TG4T (single strand)] |  | no binding
